Results taken from paper PMC10698503 (Molecular Systems Biology, 2023).
Non-standard residues stand in square brackets, D forms with d. No end group written: not given here. pS = N[C@@H](COP(=O)(O)O)C(=O)O

B1: KNL1 1441-1455 peptide KLNSKRVSFKLPKDQW (peptide)
peptide: KLNSKRVSFKLPKDQW
notes: KNL1 (CASC5) 1441-1455 by the label; also called CASC5; source: synthetic peptide, bought: Peptide 2.0 Inc
B2: Sororin 76-96 peptide PRRSPRISFFLEKENEPPGREW (peptide)
peptide: PRRSPRISFFLEKENEPPGREW
notes: Sororin (CDCA5) 76-96 by the label; also called CDCA5; source: synthetic peptide, bought: Peptide 2.0 Inc

Tests used:
His-PP1γ [1] = target: T1, His-PP1γ (UniProt P36873 1-323); test: ITC; peptide (approximately 450 µM, syringe) titrated into PP1γ (~35 µM, cell); 25°C; 50 mM sodium phosphate, 150 mM NaCl, 0.5 mM TCEP, pH 7.5; single-site model; details: both partners purified
T1 construct: PP1γ, catalytic subunit of protein phosphatase 1, gamma isoform; D1:p17 gives a molecular weight of 36965 Da for PP1; also called PP1g
T1 sequence (P36873 whole entry, canonical isoform): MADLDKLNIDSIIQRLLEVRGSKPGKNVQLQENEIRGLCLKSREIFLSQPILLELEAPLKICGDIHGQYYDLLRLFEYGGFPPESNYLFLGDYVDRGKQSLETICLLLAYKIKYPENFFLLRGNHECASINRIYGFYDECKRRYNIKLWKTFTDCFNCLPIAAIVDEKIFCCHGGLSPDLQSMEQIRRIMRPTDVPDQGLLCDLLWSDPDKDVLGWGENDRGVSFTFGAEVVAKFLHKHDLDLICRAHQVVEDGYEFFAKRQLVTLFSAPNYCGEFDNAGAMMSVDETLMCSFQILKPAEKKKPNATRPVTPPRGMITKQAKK

His-PP1γ [2] = target: His-PP1γ (UniProt P36873 1-323); test: as above; details: both partners purified
Target sequence in this assay (P36873 whole entry, canonical isoform): as above

Row | Binder | Kd (His-PP1γ [1]) | Kd (His-PP1γ [2])
1 | AKNSRVTFSEDDEIW [Nipp1 197-209 peptide AKNSRVTFSEDDEIW] | 190 ± 10 nM | 
2 | B1 | 120 ± 10 nM | 
3 | RRSPRI[pS]FFLEKENEW [Sororin 73-91 pS83 peptide RRSPRI(pS)FFLEKENEW] |  | 1360 ± 10 nM
4 | B2 | 2530 ± 110 nM | 
